Measurements taken from article PMC2791216, “Phosphorylation of S776 and 14-3-3 Binding Modulate Ataxin-1 Interaction with Splicing Factors” (PLoS ONE, 2009).
Each block holds one molecule with its values, some of them ahead of it. Square brackets hold non-standard residues; d marks the D form. Ends that are not written are not given here. Peptide text beside a SMILES is read from it. pS = N[C@@H](COP(=O)(O)O)C(=O)O

What was measured:
14-3-3ζ [1] = biological target: T1, 14-3-3ζ (Homo sapiens, UniProt P63104); assay: ITC binding of Atx1 ULM peptides to 14-3-3ζ; details: 50 mM sodium phosphate buffer (pH 7.0), 150 mM NaCl, 5 mM DTT, 295 K, average of three measurements, n.b. = binding not detectable
T1 sequence (P63104 1-245): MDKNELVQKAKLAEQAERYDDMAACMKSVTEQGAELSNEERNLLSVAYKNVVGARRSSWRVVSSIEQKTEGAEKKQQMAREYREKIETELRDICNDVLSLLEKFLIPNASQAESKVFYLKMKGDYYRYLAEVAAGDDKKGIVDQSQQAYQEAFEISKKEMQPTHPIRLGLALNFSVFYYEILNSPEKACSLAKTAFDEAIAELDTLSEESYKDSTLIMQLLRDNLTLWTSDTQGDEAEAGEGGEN
From the text: Since S776 phosphorylated Atx1 binds also the 14-3-3 protein [17], we compared the affinity of this interaction. We used a peptide C-terminally extended as compared to the one previously designed to probe interaction with U2AF65 UHM so to include P778 and encompass the complete 14-3-3 ‘mode II’ recognition motif (Atx1_pS_ULM_PE, residues 769–779). We compared the affinities of this peptide with the non-phosphorylated version (Atx1_S_ULM_PE) and with the shorter Atx1_pS_ULM peptide. […] We chose to work with isoform ζ (14-3-3ζ) since it is present in high concentrations in the neuronal nucleus of all the major affected areas in SCA1 brains.
All the proteins were dialyzed against 50 mM sodium phosphate buffer (pH 7.0), 150 mM NaCl and 5 mM DTT. Solutions of 0.025–0.4 mM UHM proteins in the cell were titrated by injections of a total of 295 µl of 0.25–3.9 mM peptide in the syringe in 21 aliquots. The concentrations of the 14-3-3ζ and ATX1 ULM ligands were adjusted to 0.012–0.037 mM and 0.1–0.4 mM respectively. Data were processed with the software MicroCal Origin version 5.0 provided by the manufacturer. All dissociation constants were averages of three measurements.

U2AF65 UHM, 369-475 = U2AF65 UHM, 369-475 (UniProt P26368); assay: NMR 15N-HSQC titration; details: reference: unphosphorylated Atx1 ULM peptide; sites S776
U2AF65 UHM, 369-475, sequence (P26368 whole entry, looked up, the tested form may be a part, one chain of several): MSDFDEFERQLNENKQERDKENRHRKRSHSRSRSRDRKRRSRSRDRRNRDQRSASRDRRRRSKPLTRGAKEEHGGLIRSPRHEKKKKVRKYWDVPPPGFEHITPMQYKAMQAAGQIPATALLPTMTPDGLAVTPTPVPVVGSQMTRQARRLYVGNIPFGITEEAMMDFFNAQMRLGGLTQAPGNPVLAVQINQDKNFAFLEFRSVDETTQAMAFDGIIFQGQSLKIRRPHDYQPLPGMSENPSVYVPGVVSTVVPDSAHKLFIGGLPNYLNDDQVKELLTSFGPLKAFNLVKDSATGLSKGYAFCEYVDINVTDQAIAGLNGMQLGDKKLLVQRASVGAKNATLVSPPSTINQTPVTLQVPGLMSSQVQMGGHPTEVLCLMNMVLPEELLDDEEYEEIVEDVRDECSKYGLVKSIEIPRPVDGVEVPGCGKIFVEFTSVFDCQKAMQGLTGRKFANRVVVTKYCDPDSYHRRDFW

[2] = biological target: T2, SPF45 UHM (residues 301–401) (UniProt Q96I25 301-401); assay: ITC; 50 mM sodium phosphate buffer (pH 7.0), 150 mM NaCl, 5 mM DTT; 295 K; protein in the cell, peptide in the syringe; single-site model; averages of three measurements; details: both partners purified
T2 construct: SPF45, also known as RBM17, UHM domain, residues 301-401; The His6-GST tags (vector pETM30) are TEV-cleavable; also called RBM17 UHM; source: E. coli BL21 (DE3)pLysS, purified (Ni-NTA, SEC)
T2 sequence (looked up): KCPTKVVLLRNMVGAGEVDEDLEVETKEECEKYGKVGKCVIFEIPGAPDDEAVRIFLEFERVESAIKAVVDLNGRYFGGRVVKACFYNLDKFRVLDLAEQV

[3] = biological target: T3, U2AF65 UHM (residues 369–475) (UniProt P26368 369-475); assay: as above; details: both partners purified
T3 construct: U2AF65 (splicing factor U2AF 65 kDa subunit), UHM domain, residues 369-475; The His6-GST tags (vector pETM30) are TEV-cleavable; 15N-labelled for the NMR experiments, unlabelled for ITC; also called U2AF65 UHM domain; source: E. coli BL21 (DE3)pLysS, purified (Ni-NTA, SEC)
T3 sequence (P26368 369-475, one chain of several): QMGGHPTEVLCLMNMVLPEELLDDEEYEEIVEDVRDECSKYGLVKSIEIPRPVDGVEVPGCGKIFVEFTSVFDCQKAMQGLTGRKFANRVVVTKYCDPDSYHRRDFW

14-3-3ζ [4] = biological target: T4, 14-3-3ζ (UniProt P63104 1-245); assay: as above; details: both partners purified
T4 construct: 14-3-3 protein, isoform zeta; also called 14-3-3 isoform ζ
T4 sequence (looked up): T1 sequence (P63104 1-245)

[5] = biological target: T3, U2AF65 UHM (residues 369–475); assay: ITC; 20 mM sodium phosphate buffer (pH 6.4), 30 mM NaCl, 5 mM DTT; 295 K; protein in the cell, peptide in the syringe; details: both partners purified

Molecule: ATRKRRWDAPE [Atx1_D_ULM_PE]
- Kd, 14-3-3ζ (ITC) (14-3-3ζ [1]): n.b.

Molecule: C[C@H](N)C(=O)N[C@H](C(=O)N[C@@H](CCCNC(=N)N)C(=O)N[C@@H](CCCCN)C(=O)N[C@@H](CCCNC(=N)N)C(=O)N[C@@H](CCCNC(=N)N)C(=O)N[C@@H](Cc1c[nH]c2ccccc12)C(=O)N[C@@H](COP(=O)(O)O)C(=O)N[C@@H](C)C(=O)N1CCC[C@H]1C(=O)N[C@@H](CCC(=O)O)C(=O)O)[C@@H](C)O [Atx1_pS_ULM_PE] (H-ATRKRRW[pS]APE-OH)
- Kd (14-3-3ζ [1]): 0.4 ± 0.03 µM

Molecule: Ataxin-1 (Atx1) 769-777 (from UniProt P54253) pS776 Atx1 ULM peptide
- binding against the reference (U2AF65 UHM, 369-475): same

B2: Atx1_S_ULM_PE (peptide)
peptide: ATRKRRWSAPE
notes: Ataxin-1 (Atx1), residues 769-779; source: synthetic peptide; bought: Pepceuticals Limited
- Kd [2]: 23.4 ± 1.5 µM
- Kd [3]: 9.2 ± 0.3 µM

B3: Atx1_D_ULM_PE (peptide)
peptide: ATRKRRWDAPE
notes: also called S776D peptide; S776D mutant peptide; source: synthetic peptide; bought: Pepceuticals Limited
- Kd [2]: 0.9 ± 0.07 µM
- Kd [3]: 6.4 ± 0.7 µM

Second part, the molecule after the results:

- Kd, 14-3-3ζ (ITC) (14-3-3ζ [1]): n.b.
Molecule: ATRKRRWAAPE [Atx1_A_ULM_PE]

- Kd, 14-3-3ζ (ITC) (14-3-3ζ [1]): n.b. ^c
Molecule: ATRKRRWSAPE [Atx1_S_ULM_PE]

- Kd [2]: 40 ± 1.6 µM
- Kd [3]: 35.8 ± 1.3 µM
B1: Atx1_pS_ULM_PE (peptide)
peptide: ATRKRRW[pS]APE
notes: Ataxin-1 (Atx1), residues 769-779, S776 phosphorylated; source: synthetic peptide; bought: Pepceuticals Limited

- Kd [2]: 22.5 ± 0.6 µM
- Kd [3]: 8.9 ± 0.4 µM
B4: Atx1_A_ULM_PE (peptide)
peptide: ATRKRRWAAPE
notes: also called S776A-mutated peptide; S776A mutant peptide; source: synthetic peptide; bought: Pepceuticals Limited

- Kd (14-3-3ζ [4]): 1 ± 0.1 µM
- Kd [3]: 18.4 ± 0.7 µM
- Kd [5]: 0.6 ± 0.08 µM
B5: Atx1_pS_ULM (peptide)
peptide: ATRKRRW[pS]A
notes: Ataxin-1 (Atx1), residues 769-777, S776 phosphorylated; also called phosphorylated Atx1 ULM; source: synthetic peptide; bought: Pepceuticals Limited
